Patent US20170247437A1 (ONCOMED PHARMACEUTICALS, published 2017)

Key:
[1] = target: FLAG-RSPO1furin-CD4TM-GFP (human) (UniProt Q2MKA7); assay: FACS on HEK-293 cells transiently expressing FLAG-RSPO1furin-CD4TM-GFP; secondary APC-conjugated anti-IgG alone, no primary antibody
[2] = target: T1, recombinant human RSPO1 (R&D Systems) (human, UniProt Q2MKA7 21-263); assay: ELISA on plate-coated recombinant human RSPO1, anti-human IgG Fc-HRP detection, 4-parameter fit, 3 runs
T1 construct: Bought protein
T1 sequence (Q2MKA7 21-263 limits assumed): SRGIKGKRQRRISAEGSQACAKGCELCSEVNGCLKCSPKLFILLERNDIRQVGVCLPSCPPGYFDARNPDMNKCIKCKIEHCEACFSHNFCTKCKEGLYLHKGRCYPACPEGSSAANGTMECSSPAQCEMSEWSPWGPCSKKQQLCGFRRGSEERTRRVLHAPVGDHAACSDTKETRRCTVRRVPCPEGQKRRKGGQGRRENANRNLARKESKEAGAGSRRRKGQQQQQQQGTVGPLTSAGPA
Experimental: High binding 96 well plates (Nalge Nunc International) were coated with […] recombinant human RSPO1 (R&D Systems) in coating buffer (1× PBS, pH 7.4) overnight at 2-8° C. The plates were washed 3-6 times after each step with 300 μl/well of 1× PBS, 0.05% Tween-20, pH 7.4. After coating, the plates were incubated with 250 μl/well of blocking buffer (1× PBS, 0.1% gelatin, 0.1% TWEEN-20, pH 7.4) for 60 minutes ±10 minutes at room temperature (19-25° C.). Plates were washed and incubated with 100 μl/well of first generation humanized anti-RSPO1 antibody h89M5-H2L2 and second generation humanized antibody h89M5-H8L5 for 120 minutes ±10 minutes at room temperature. First generation humanized anti-RSPO1 antibody h89M5-H2L2 was use as the reference standard and the positive control. The antibodies were prepared at an initial concentration of 2.5 μg/ml and diluted 3-fold serially, ranging from 2.5 μg/ml to […]. Each sample was tested in duplicate and the experiment was run 3 times. […] The binding of the antibodies to RSPO1 was measured by absorbance at 450 nm and 650 nm using an ELISA plate reader (Molecular Devices). The results were analyzed using a 4-parameter curve fit, and relative binding potency was determined by comparing EC₅₀ values of the reference to that of the samples.

Chain of FLAG-RSPO1furin-CD4TM-GFP (human) (Q2MKA7 34-135): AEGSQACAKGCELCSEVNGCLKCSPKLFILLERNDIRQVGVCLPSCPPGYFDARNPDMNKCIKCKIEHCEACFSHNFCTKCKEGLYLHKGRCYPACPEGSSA

Molecule | MFI [1] | mean relative binding potency (EC50 against reference h89M5-H2L2) [2]
Secondary Ab Control (antibody) | 3.2 | –
second generation humanized anti-RSPO1 antibody h89M5-H8L5 (antibody, human IgG1, kappa, V domains shown, Humanized version of mouse antibody 89M5, with the same CDRs as h89M5-H2L2; also called h89R5-H8L5) VH: EVQLVQSGAEVKKPGESLRISCKGSGYSFTGYTMHWVRQMPGKGLEWMGGINPNNGGTTYNQNFKGHVTISADKSISTAYLQWSSLKASDTAMYYCARKEFSDGYYFFAYWGQGTLVTVSS VL: DIVMTQSPDSLAVSLGERATINCKASQDVIFAVAWYQQKPGQPPKLLIYWASTRHTGVPDRFSGSGSGTDFTLTISSLQAEDVAVYYCQQHYSTPWTFGGGTKVEIKR | – | 120%
